Data as given in PMC4887326 (2016).

Key:
[1] = biological target: YfiB^L43P/F57A (residues 34–168) (P. aeruginosa, UniProt Q9I4L6 34-168, L43P | F57A); experiment: ITC
[2] = biological target: YfiB^L43P (residues 34–168), purified alone (P. aeruginosa, UniProt Q9I4L6 34-168, L43P); experiment: ITC

B1: YfiR (residues 35–190), purified alone (domain or fragment)
chain: DDARTSIEQRSNAVSQVLLGIFSYVRWPKEPAVLQLCVVGPTEYADGLLRGMVQANGRRVHAERRAVDNPDLGTLCNVIYLGVVDERERQQVFRSLAGHPVLSISERGTECSVGSMFCLNVGGPRITFEANLDSIARSGVRVHPSVLKLARRQATP
- Ka [1]: 1.87e+06 M⁻¹
- Ka [2]: 7.12e+06 M⁻¹
